Source: article PMC11103505 (2024)
Where a chain is given by its changes, count along the chain named. Values belong to the binder of their own block, whether it stands above or below them.

What was measured:
Assay in all cases: SPR
[1] = target: T1, recombinant mouse AXL protein (mouse, UniProt Q00993 19-445)
T1 chain: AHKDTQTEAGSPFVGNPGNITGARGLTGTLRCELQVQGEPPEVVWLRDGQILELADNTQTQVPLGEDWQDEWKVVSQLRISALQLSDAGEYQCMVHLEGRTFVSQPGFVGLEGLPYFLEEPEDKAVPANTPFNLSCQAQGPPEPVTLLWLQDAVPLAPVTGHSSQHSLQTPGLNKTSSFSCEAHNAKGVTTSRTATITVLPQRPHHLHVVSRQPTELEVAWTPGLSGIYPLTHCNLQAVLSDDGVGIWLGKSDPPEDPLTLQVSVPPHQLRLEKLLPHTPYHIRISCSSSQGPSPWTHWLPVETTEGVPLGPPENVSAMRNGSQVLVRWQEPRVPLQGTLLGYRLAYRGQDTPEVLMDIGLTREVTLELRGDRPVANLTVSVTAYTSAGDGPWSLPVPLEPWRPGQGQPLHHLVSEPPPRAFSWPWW

[2] = target: recombinant human AXL protein (human, UniProt P30530 26-451)
Target sequence in this assay (P30530 26-451): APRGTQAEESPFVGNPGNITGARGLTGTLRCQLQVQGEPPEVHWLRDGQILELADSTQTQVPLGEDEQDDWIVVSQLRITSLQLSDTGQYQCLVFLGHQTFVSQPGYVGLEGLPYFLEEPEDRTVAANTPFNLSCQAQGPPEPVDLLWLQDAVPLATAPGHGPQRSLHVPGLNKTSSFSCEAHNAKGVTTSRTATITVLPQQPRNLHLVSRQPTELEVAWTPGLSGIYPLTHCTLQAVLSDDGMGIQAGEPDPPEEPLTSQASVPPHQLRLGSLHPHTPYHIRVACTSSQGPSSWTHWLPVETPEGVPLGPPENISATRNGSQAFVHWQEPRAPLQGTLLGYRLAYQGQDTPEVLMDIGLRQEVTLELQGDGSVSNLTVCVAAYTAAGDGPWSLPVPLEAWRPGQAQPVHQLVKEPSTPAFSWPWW

[3] = target: T2, recombinant mouse AXL protein (mouse, UniProt Q00993 19-445)
T2 chain: T1 chain

[4] = target: recombinant human AXL protein (human, UniProt P30530 26-451); remark: listed apart in the source
Target sequence in this assay (P30530 26-451): as above

Kd [1]: 11.8 nM | Kd [2]: 24 nM
B1: anti-AXL single domain antibody sdAb19 (VHH)
VHH: QVQLQESGGGMVQPGGSLRLSCAASGFTFTSYDMTWLRQTPGKGPEWVSTISTGGLRTYYGNSVKGRFIISRDNTKNTLYLQMNSLKPEDTALYYCARGPFTVADPRRGQGTQVTVSS

Kd [3]: 5.2 nM | Kd [4]: 22 nM
B2: anti-AXL single domain antibody sdAb20 (VHH)
VHH: B1 VHH with M11L, Q13R

Kd [1]: 439 nM | Kd [2]: 9.1 nM
B3: anti-AXL single domain antibody sdAb25 (VHH)
VHH: QVQLQESGGGLVQPGGSLRLSCVASGSIFSIYAMGWYRQAPGKQRELVAGISSGGSTNYADSVKGRFTISRDNAKNTVYLQMNSLKPEDTAVYYCNYDLVEAVTGEYDYWGQGTQVTVSS

Kd [1]: 354 nM | Kd [2]: 7.7 nM
B4: anti-AXL single domain antibody sdAb12 (VHH)
VHH: B3 VHH with Q13K

Kd [1]: 541 nM | Kd [2]: 10.8 nM
B5: anti-AXL single domain antibody sdAb4 (VHH)
VHH: B3 VHH with E101K
